From the RNAGym collection of RNA variant scans (doi:10.7554/elife.80360)

B1: HDV Ribozyme (parent)
chain: GGCCGGCAUGGUCCCAGCCUCCUCGCUGGCGCCGGCUGGGCAACAUUCCGAGGGGACCGUCCCCUCGGUAAUGGCGAAUGGGACCCA

Variants of: B1
Assay: self-cleavage, relative activity (ratio to wild type); higher = more cleavage; co-transcriptional

Point of comparison: GGCCGGUAUGGUCCCAGCCUCCUCGCUGGAGCCGGCUGGGCAACAUUCCGAGGGGACCGUCCCCUCGGUAAUGGCGAAUGGGACCCA, self-cleavage 0.369. Against it:
- GGCCGGCAUGGUCCCAGCCUCCUCGCUGGCGCCGGCUGGGCAACAUUCCGAGGGGACCGUCCCCUCGGUAAUGGCGAAUGUGACCCG — lower, 0.291
- GGCCGGCAUGGUCCCAGCCUCCUCGCUGGCGCCGGCUGGGCAACAUUCCGAGGGGACCGUCCCCUCGGUACUGGCGAAUGCGACCCA — lower, 0.172
- GGCCGGCAUGGUCCCGGCCUCCUCGCUGCCGCCGGCUGGGCAACAUUCCGAGGGGACCGUCCCCUCGGUAAUGGCGAAUGGGACCCA — lower, 0
- GGCCGGCAUGGUCCCAGACUCCUCGCUGGCGCCGGCUGGGCAACACUCCGAGGGGACCGUCCCCUCGGUAAUGGCGAAUGGGACCCA — lower, 0.095
- GGCCGGCAUGGUCCCAGUCUGCUCGCUGGCGCCGGCUGGGCAACAUUCCGAGGGGACCGUCCCCUCGGUAAUGGCGAAUGGGACCCA — lower, 0.151
- GGCCGGCAUGGUCCCAGCCUCCUCGCUGGCGCCGGCUGGGCAACAUUCCGAGGGGACCGUCCCCUCGAUAAUGCCGAAUGGGACCCA — lower, 0.314
- GGCCGGCAUGGUCCCAGCCUCCUCGCUUGCGCCGGCUGGGCAACAUUUCGAGGGGACCGUCCCCUCGGUAAUGGCGAAUGGGACCCA — lower, 0.0361
- GGCCGGCAUGGUCCCAGCCUCCUCGCUGGCGCCGCCUGGGCAACAUUCCGAGGGGACCGUCCCCUCGGUAAUGGCGCAUGGGACCCA — lower, 0.0898
- GGCCGGCAUUGUCCCAACCUCCUCGCUGGCGCCGGCUGGGCAACAUUCCGAGGGGACCGUCCCCUCGGUAAUGGCGAAUGGGACCCA — higher, 0.704
- GGCCGGCAUGGUCCCAGCCUACUCGCUGGCGCCGGCUGGGCAACAUUCCGAGGGGACCGUCCCCUCGGUAUUGGCGAAUGGGACCCA — lower, 0.106
- GGCCGGCAUGGUCCCAGCCUCCUCGCUGGCGCCGGCUGGGCAACAUUCCGAGGGGACCGACCCCUCGGUAAUGGCGCAUGGGACCCA — lower, 0.305
- GGCCGGCAUGGUCCCAGCCUCCUCGCUGGCGCGGGCUGGGCAACAUUCCGAGGGGACCGUCCCCUCCGUAAUGGCGAAUGGGACCCA — lower, 0.0978
- GGCCGGCAUGGUCCCAGCCUCCUCGCUGGCGCCGGUUGGGCAACAUUCCGAGGGGACCGUCCGCUCGGUAAUGGCGAAUGGGACCCA — higher, 0.493
- GGCCGGCAUGGUCCCAGCCUCCUCGCUGGCGCCGGCUGGGCAACAUUCAGAGGGGACCGUCCCCUCGGUAAUGCCGAAUGGGACCCA — lower, 0.0755
- GGUCGGCAUGGUCCCAGCCUCCUCGCUGGCGCCGGCUGGGCAACAUUCCGAGGGGACCGUCCCCUCGGUAAUGGCGAAUGGGCCCCA — lower, 0.318
- GGCCGGCAUGGUCCCAUCCUCCUCGCUGGCGCCGGCUGGGCAACUUUCCGAGGGGACCGUCCCCUCGGUAAUGGCGAAUGGGACCCA — lower, 0.244
- GGCCGGCAUGGUCCCAGCCUCCUCGCUGGCGCCGGCUGGGCAACAUUCCGAGGGGACCGUCCCCUCGGUAAUGGCGAAAGGGACCCC — higher, 0.849
- GGCCGGCAUGGUCCCAGCCUCCUCGCUGGCGCCGGCUGGGCAACAUUCCGAGGGGACCGUCCUCUCGGUAAUGGCGAAUGGGACCUA — higher, 1.05
- GGGCGGCAUGGUCCCAGCCUCCUCGCUGGCGCCGGCUGGGCAACAUUCCGAGGGGACCGUGCCCUCGGUAAUGGCGAAUGGGACCCA — higher, 0.561
- GGCCGGGAUGGUCCCAGCCUCCUCGCUGGCGCCGGCUGGGCAACAUUCCAAGGGGACCGUCCCCUCGGUAAUGGCGAAUGGGACCCA — higher, 0.612
- GGCCGGCAUGGUCCCAGCCUCCUCGCUGGCGCCGGCUGGGCAACAUACCGAGGGGACCGUCCCCUAGGUAAUGGCGAAUGGGACCCA — higher, 0.847
- GGCCGGCAUGGUCCCAGCCUGCUCGCUGGCGCCGGCUGGGCAACAUUCCGAGGGGACCGUCCCCUCGGUAAUGGCGAAUGGGAACCA — lower, 0.138
- GGCCGGCAUGGUCCCAGCUUCCUCGCUGGCGCCGGCUGGGCAACAUUCCGAGGGGACCGUCCGCUCGGUAAUGGCGAAUGGGACCCA — lower, 0.0707
- GGCCGGCAUGGUCCCAGCCUCCUCGCUGGUGCCGGCUGGGCAACAUUCCGAGGGGACCGUCCCCUCGGUAAUGGCGAAUGGGAUCCA — lower, 0.319
- GGCCGGCAUGGUCCCAGCCUCCUCGCUGGCGCCGGCUGGGCAACAUUCCGAGGGGAGCGUCCCCUCGGUAGUGGCGAAUGGGACCCA — higher, 1.08
- GGCAGGCAUGGUCCCAGCCUCCUCGCUGGCGCCGGCUGGGCAACAUUCCGAGGGCACCGUCCCCUCGGUAAUGGCGAAUGGGACCCA — lower, 0.31
- GGCCGGCAUGGUCCCAGCCUCCUCGCUGGCGCCGGCUGGGCAACAUUCCGAGGGGACCGACCCCUCGGUAAUGGCGAAUGGGACACA — higher, 0.831
- GGCCGGCAUGGUCCCAGCCUCCUCGCUGGCGCCGGCUGGGCAACAUUCCGAGGUGACCGUCCCCUCGGUAAUGUCGAAUGGGACCCA — higher, 0.421
- GGCCGGUAUGGUCCCAGCCUCCUCGCUGGCGCCGGCUGUGCAACAUUCCGAGGGGACCGUCCCCUCGGUAAUGGCGAAUGGGACCCA — lower, 0.289
- GGACGGCAUGGUCCCAGCCUCCUCGCUGGCGCCGGCUGGGCAACAUUCUGAGGGGACCGUCCCCUCGGUAAUGGCGAAUGGGACCCA — higher, 0.777
- GGCCGGCAUGGUCCCAGCCUCCUCGCUGGCGCCGGCUGGGCAACAUUCCGAGGGGACCGUCCCCUCGGUAAUAACGAAUGGGACCCA — lower, 0.248
